Here are results for 1 molecule from PMC4678859, “PARN deadenylase is involved in miRNA-dependent degradation of TP53 mRNA in mammalian cells” (Nucleic Acids Research, 2015).

The experiment concerns the target GST-Ago-2 (full-length recombinant Ago-2) (UniProt Q9UKV8 1-859). Briefly: cell-based or functional assay.

GST-Ago-2 (full-length recombinant Ago-2), sequence (Q9UKV8 whole entry): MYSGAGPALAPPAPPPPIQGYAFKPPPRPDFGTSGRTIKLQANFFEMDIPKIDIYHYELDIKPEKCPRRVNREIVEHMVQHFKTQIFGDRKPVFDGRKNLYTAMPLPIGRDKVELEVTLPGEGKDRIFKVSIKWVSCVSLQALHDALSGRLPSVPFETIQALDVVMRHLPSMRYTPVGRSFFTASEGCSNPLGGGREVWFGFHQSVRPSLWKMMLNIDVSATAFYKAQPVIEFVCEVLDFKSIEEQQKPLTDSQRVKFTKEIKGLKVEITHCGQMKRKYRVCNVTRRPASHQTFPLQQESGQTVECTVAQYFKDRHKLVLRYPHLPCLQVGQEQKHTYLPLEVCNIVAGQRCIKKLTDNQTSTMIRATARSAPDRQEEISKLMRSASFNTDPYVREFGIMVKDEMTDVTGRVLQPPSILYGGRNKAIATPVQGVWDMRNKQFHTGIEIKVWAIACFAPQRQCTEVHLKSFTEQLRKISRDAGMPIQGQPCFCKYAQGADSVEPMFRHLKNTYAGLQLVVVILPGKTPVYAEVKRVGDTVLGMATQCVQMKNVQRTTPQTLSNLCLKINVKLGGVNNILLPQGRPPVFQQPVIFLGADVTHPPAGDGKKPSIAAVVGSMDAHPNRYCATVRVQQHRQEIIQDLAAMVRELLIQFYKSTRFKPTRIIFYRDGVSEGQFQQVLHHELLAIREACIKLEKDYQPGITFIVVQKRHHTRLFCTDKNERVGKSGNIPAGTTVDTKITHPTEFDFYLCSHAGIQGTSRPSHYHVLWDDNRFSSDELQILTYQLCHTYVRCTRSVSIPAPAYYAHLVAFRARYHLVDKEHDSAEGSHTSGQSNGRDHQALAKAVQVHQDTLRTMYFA

B1: His-PARN (full-length recombinant PARN) (enzyme, UniProt O95453 1-639, looked up)
chain: MEIIRSNFKSNLHKVYQAIEEADFFAIDGEFSGISDGPSVSALTNGFDTPEERYQKLKKHSMDFLLFQFGLCTFKYDYTDSKYITKSFNFYVFPKPFNRSSPDVKFVCQSSSIDFLASQGFDFNKVFRNGIPYLNQEEERQLREQYDEKRSQANGAGALSYVSPNTSKCPVTIPEDQKKFIDQVVEKIEDLLQSEENKNLDLEPCTGFQRKLIYQTLSWKYPKGIHVETLETEKKERYIVISKVDEEERKRREQQKHAKEQEELNDAVGFSRVIHAIANSGKLVIGHNMLLDVMHTVHQFYCPLPADLSEFKEMTTCVFPRLLDTKLMASTQPFKDIINNTSLAELEKRLKETPFNPPKVESAEGFPSYDTASEQLHEAGYDAYITGLCFISMANYLGSFLSPPKIHVSARSKLIEPFFNKLFLMRVMDIPYLNLEGPDLQPKRDHVLHVTFPKEWKTSDLYQLFSAFGNIQISWIDDTSAFVSLSQPEQVKIAVNTSKYAESYRIQTYAEYMGRKQEEKQIKRKWTEDSWKEADSKRLNPQCIPYTLQNHYYRNNSFTAPSTVGKRNLSPSQEEAGLEDGVSGEISDTELEQTDSCAEPLSEGRKKAKKLKRMKKELSPAGSISKNSPATLFEVPDTW
For B1, the “in vitro reconstituted deadenylation of radiolabeled L3(A30) RNA substrate, limiting amounts of His-PARN and increasing amounts of GST-Ago-2” value was 2.4 fold.
